Publication PMC8423902 (Cell Reports, 2021)

Molecular target: trimeric SARS-CoV-2 ectodomain (S 6P trimer, residues 16-1206) (SARS-CoV-2, early isolate GenBank …, UniProt P0DTC2, stabilised)
Test: cryo-EM structure

B1: C118 Fab (Fab, V domains shown)
VH: QVQLVESGGGVVQPGRSLRLSCAASGFTFSNYAMHWVRQAPGKGLEWVAVISYDGSNKYYADSVKGRFTISRDNSKNTLYLQMNSLRAEDTAIYYCASGYTGYDYFVRGDYYGLDVWGQGTTVTVSS
VL: QPVLTQSPSASASLGASVKLTCTLSSGHSSYAIAWHQQQPEKGPRYLMKLNTDGSHSKGDGIPDRFSGSSSGAERYLTISSLQSEDEADYYCQTWGTGILVFGGGTKLTVL
binding result: binds
